The text below walks through data of patent publication US20040096444A1 (DUKE UNIVERSITY, published 2004).

This test concerns the target T1, VDAC1 on the surface of human umbilical vein endothelial cells (HUVEC) (human, UniProt P21796 2-283).
T1 construct: Endogenous protein on primary HUVEC; The assays were done on whole cells; also called K5 receptor on HUVEC; plasma membrane VDAC1
In words: 125I-K5 saturation binding to HUVEC monolayers at 4 C, fit to the Langmuir isotherm.

T1 sequence (P21796 2-283): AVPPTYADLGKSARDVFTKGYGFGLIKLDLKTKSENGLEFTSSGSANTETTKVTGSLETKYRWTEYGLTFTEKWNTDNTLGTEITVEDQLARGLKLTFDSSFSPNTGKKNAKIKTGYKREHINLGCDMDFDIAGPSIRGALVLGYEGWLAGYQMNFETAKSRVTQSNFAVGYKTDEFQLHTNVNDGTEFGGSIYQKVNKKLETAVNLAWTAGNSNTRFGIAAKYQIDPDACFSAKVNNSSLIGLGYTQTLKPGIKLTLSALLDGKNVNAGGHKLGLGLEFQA
Description: Ligand binding analysis. Cells were grown in tissue culture plates until the monolayers were confluent. The cells were washed in HBSS. […] Wells were stripped from the plates and radioactivity was determined. Molecules of ligand bound were calculated after substraction of nonspecific binding measured in the presence of 50 mM p-amino-benzamidine.

B1: plasminogen kringle 5 (K5), purified from pepsin digestion of human mini-Pg (ligand, UniProt P00747 481-560, looked up)
chain: CMFGNGKGYRGKRATTVTGTPCQDWAAQEPHRHSIFTPETNPRAGLEKNYCRNPDGDVGGPWCYTTNPRKLYDYCDVPQC
modifications: 125I-labeled Bolton Hunter reagent (labelled form used in the binding assays)
notes: domain: kringle 5; Proteolytic fragment (elastase, then pepsin) of purified human Pg 2; also called Pg kringle 5; angiostatin kringle-5
The molecule B1 came in with a dissociation constant (Kd) of 28 nM.
